Measurements reported in publication PMC5499727 (Nucleic Acids Research, 2017).

Target: Mcm2/4/6/7 complex (wild type) (mouse, UniProt P97310 1-904; P49717 1-862; P97311 1-821; Q61881 1-719)
Assay: co-sedimentation

Chain of Mcm2/4/6/7 complex (wild type) (P97310 whole entry, chain 1 of 4): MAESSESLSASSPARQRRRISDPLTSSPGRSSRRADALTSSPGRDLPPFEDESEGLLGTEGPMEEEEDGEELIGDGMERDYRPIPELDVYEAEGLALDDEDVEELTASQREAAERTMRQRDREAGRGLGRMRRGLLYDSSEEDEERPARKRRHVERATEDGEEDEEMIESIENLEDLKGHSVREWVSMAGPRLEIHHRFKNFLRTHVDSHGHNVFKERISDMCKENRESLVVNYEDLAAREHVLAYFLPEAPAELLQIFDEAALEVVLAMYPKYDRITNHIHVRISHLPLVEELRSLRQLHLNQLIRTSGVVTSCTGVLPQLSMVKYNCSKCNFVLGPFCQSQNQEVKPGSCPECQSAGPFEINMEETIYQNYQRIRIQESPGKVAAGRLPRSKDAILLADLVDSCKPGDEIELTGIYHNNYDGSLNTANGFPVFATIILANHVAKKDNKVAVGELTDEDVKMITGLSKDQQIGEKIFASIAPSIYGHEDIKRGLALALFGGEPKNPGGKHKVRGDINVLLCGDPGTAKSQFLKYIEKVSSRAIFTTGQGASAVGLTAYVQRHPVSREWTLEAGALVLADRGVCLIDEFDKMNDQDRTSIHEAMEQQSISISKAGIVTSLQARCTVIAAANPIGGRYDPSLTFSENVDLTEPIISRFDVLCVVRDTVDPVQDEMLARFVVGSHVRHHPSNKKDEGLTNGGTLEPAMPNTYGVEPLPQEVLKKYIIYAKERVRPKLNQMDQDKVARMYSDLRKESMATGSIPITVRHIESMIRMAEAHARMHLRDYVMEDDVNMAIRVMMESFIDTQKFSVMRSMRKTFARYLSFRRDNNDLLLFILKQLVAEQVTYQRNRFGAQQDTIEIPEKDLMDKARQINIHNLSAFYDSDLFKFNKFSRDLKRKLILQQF
Chain of Mcm2/4/6/7 complex (wild type) (P49717 whole entry, chain 2 of 4): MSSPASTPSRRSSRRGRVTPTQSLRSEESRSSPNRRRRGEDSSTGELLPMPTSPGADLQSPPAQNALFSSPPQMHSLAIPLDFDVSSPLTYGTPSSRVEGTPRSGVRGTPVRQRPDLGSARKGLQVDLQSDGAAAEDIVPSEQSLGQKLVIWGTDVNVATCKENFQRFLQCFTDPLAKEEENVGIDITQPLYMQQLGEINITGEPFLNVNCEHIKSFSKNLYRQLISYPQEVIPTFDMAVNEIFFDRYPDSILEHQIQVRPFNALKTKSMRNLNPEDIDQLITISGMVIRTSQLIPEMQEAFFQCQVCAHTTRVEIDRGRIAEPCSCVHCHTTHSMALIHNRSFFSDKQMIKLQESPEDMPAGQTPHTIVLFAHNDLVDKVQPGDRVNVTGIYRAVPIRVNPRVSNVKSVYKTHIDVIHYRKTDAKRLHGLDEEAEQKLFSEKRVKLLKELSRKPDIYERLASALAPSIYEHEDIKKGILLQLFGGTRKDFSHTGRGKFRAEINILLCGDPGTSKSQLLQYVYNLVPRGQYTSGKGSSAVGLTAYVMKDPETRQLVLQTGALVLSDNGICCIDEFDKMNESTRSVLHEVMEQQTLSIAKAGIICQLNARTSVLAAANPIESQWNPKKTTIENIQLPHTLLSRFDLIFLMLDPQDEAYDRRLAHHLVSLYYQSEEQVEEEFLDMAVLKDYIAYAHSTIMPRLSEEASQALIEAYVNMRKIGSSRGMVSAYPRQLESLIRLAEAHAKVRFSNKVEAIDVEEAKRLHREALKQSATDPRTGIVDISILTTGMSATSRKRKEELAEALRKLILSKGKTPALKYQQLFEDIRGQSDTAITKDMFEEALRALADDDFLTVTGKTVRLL
Chain of Mcm2/4/6/7 complex (wild type) (P97311 whole entry, chain 3 of 4): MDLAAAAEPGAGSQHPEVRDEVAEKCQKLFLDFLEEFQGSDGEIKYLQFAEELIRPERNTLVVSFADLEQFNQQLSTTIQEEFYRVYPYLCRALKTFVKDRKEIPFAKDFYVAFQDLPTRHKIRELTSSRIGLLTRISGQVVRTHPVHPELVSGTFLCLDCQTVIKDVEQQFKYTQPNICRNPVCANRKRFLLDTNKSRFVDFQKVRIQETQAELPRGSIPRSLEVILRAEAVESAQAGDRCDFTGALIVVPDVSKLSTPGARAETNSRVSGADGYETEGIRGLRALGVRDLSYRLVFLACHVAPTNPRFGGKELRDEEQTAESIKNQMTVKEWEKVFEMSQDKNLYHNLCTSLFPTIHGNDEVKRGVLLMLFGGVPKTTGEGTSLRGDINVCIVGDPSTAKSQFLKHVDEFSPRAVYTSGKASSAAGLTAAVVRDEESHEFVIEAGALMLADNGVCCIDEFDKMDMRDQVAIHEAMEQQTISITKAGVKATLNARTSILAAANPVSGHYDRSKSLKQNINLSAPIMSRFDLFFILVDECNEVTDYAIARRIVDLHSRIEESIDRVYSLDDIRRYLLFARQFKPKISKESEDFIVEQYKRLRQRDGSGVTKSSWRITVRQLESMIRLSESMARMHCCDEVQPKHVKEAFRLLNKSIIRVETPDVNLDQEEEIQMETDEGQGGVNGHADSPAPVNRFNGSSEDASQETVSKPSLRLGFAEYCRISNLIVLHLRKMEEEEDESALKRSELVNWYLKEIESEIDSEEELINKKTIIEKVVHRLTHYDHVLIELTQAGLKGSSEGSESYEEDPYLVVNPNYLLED
Chain of Mcm2/4/6/7 complex (wild type) (Q61881 whole entry, chain 4 of 4): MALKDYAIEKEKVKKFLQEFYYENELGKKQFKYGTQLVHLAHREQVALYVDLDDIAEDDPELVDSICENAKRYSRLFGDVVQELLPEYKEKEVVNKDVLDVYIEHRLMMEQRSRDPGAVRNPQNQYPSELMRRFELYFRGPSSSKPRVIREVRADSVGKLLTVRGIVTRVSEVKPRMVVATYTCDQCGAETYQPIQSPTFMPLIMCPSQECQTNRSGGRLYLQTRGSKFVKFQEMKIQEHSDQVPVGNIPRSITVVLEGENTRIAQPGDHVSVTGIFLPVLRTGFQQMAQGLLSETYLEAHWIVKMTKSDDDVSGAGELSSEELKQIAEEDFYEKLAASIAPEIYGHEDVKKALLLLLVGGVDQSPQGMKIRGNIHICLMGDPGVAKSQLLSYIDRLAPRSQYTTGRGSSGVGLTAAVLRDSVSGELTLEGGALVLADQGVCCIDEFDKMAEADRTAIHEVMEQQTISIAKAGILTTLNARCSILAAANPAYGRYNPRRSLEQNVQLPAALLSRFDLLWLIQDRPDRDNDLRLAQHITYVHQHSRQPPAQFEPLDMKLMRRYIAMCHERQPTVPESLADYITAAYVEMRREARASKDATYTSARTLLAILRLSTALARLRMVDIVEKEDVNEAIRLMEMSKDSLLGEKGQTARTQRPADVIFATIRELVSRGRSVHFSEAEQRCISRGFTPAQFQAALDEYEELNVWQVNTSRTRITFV

binding result: binds
B1: Mcm3/5 complex (wild type) (complex, mouse)
chain 1: MAGTVVLDDVELREAQRDYLDFLDDEEDQGIYQNKVRELISDNQYRLIVSVNDLRRKNEKRANRLLNNAFEELVAFQRALKDFVASIDATYAKQYEEFYIGLEGSFGSKHVSPRTLTSCFLSCVVCVEGIVTKCSLVRPKVVRSVHYCPATKKTIERRYSDLTTLVAFPSSSVYPTKDEENNPLETEYGLSVYKDHQTITIQEMPEKAPAGQLPRSVDVILDDDLVDKVKPGDRIQVVGTYRCLPGKKGCYTSGTFRTVLIACNVKQMSKDIQPAFSADDIAKIKKFSKTRSKDVFEQLARSLAPSIHGHDYVKKAILCLLLGGVERELENGSHIRGDINILLIGDPSVAKSQLLRYVLCTAPRAIPTTGRGSSGVGLTAAVTTDQETGERRLEAGAMVLADRGVVCIDEFDKMSDMDRTAIHEVMEQGRVTIAKAGIHARLNARCSVLAAANPVYGRYDQYKTPMENIGLQDSLLSRFDLLFIMLDQMDPEQDREISDHVLRMHQYRAPGEQDGDALPLGSSVDILATDDPDFTQDDQQDTRIYEKHDSLLHGTKKKKEKMVSAAFMKKYIHVAKIIKPTLTQESAAYIAEEYSRLRSQDSMSSDTARTSPVTARTLETLIRLATAHAKARMSKTVDLQDAEEAVELVQYAYFKKVLEKEKKRKKASEDESDLEDEEEKSQEDTEQKRKRRKTHAKDGESYDPYDFSEAETQMPQVHTPKTDDSQEKTDDSQETQDSQKVELSEPRLKAFKAALLEVFQEAHEQSVGMLHLTESINRNREEPFSSEEIQACLSRMQDDNQVMVSEGIVFLI
chain 2: MSGFDDPGIFYSDSFGGDPGAEEGQARKSQLQRRFKEFLRQYRVGTDRTGFTFKYRDELKRHYNLGEYWIEVEMEDLASFDEELADHLHKQPAEHLQLLEEAAKEVADEVTRPRPAGDELLQDIQVMLKSDASPSSIRILKSDMMSHLVKIPGIIISASAVRAKATRISIQCRSCHNTLTNIAMRPGLEGYALPRKCNMDQAGRPKCPLDPYFIMPDKCKCVDFQTLKLQELPDAVPHGEMPRHMQLYCDRYLCDKVVPGNRVTIMGIYSIKKFGLNPSKGRDRVGVGIRSSYIRVLGIQVDTDGSGRSFAGSVSPQEEEEFRRLAALPNIYELISKSISPSIFGGMDMKKAIACLLFGGSRKRLPDGLTRRGDINLLMLGDPGTAKSQLLKFVEKCSPIGVYTSGKGSSAAGLTASVIRDPSSRNFIMEGGAMVLADGGVVCIDEFDKMREDDRVAIHEAMEQQTISIAKAGITTTLNSRCSVLAAANSVFGRWDETKGEDNIDFMPTILSRFDMIFIVKDEHNEERDMMLAKHVMTLHVSALTQTQAVEGEIDLAKMKKFIAYCRARCGPRLSAEAAEKLKNRYIIMRSGARQHERDSDRRSSIPITVRQLEAIVRIAEALSKMKLQPFATEADVEEALRLFQVSTLDAALSGNLSGVEGFTTQEDQEMLSRIEKQLKRRFAIGSQVSEHSIVQDFTKQKYPEHAIRKVLQLMLRRGEIQHRMQRKVLYRLK
